Experimental data reported in US20210130473A1, “TGFßR1 INHIBITOR-ASGR ANTIBODY CONJUGATES AND USES THEREOF” (Silverback Therapeutics, Inc., priority 2019, published 2021).

T1: human ASGR1 extracellular domain (ECD) (Homo sapiens, UniProt P07306)
T1 sequence (P07306 62-291 limits assumed): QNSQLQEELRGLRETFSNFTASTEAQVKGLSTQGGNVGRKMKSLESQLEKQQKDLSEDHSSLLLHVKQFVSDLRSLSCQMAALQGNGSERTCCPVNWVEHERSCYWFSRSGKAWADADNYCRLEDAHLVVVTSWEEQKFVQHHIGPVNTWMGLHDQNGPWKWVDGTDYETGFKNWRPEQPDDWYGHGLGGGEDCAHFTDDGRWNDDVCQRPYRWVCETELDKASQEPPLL

T2: HepG2 cells (which express ASGR1) (Homo sapiens, UniProt P07306)
T2 construct: endogenous in cells; host or cells: HepG2
T2 sequence (P07306 1-291): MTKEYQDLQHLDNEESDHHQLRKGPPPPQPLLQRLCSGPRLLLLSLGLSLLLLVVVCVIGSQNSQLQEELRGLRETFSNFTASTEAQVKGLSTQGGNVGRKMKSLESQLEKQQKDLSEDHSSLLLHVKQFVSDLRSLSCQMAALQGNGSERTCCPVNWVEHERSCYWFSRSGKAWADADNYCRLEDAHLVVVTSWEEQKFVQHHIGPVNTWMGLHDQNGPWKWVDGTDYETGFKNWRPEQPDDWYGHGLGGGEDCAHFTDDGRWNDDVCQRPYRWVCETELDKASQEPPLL

T3: rat ASGR1 (Rattus norvegicus, UniProt P02706)
T3 construct: expressed in transfected cells; host or cells: CHO-S (transient)
T3 sequence (P02706 1-284): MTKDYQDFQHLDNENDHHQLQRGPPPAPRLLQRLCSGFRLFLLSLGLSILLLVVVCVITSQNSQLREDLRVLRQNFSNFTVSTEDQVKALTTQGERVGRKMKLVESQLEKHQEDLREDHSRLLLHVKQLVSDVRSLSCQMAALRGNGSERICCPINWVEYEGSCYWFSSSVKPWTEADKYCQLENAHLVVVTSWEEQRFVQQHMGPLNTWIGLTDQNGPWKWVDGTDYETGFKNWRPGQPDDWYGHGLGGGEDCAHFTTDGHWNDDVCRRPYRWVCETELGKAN

B1: hzL4L-7: "humanized anti-ASGR1 antibodies hzL4L-7 and hzL4L-14 as compared to parent mouse anti-ASGR1 antibody L4L" (antibody, V domains shown)
VH: QVQLQESGPGLVKPSQTLSLTCTVSGYSISSDYAWNWIRQHPGKGLEWIGYISYSGSTRYNPSLKSRVTITRDTSKNQFSLKLSSVTAADTAVYYCARRYRYDEGYGMDYWGQGTTVTVSS
VL: DIQMTQSPSSLSASVGDRVTITCRASENIYSNLAWYQQKPGKAPKLLIYAATNLADGVPSRFSGSGSGTDFTLTISSLQPEDFATYYCQHFWGTPPWTFGGGTKVEIK
B2: hzH8K-1: "humanized anti-ASGR1 antibodies hzH8K-1 and hzH8K-10 as compared to parent mouse anti-ASGR1 antibody H8K" (antibody, V domains shown)
VH: QVQLQESGPGLVKPSQTLSLTCTVSGGSISSDYAWNWIRQHPGKGLEWIGYRSYRGSTSYNPSLKSRVTISVDTSKNQFSLKLSSVTAADTAVYYCARRGYYGSSSHWYFDVWGQGTTVTVSS
VL: DIQMTQSPSSLSASVGDRVTITCRASENIYSYLAWYQQKPGKAPKLLIYNAKTLAEGVPSRFSGSGSGTDFTLTISSLQPEDFATYYCQHHYGTPLTFGGGTKVEIK

Tests used:
[1] = target: T1, human ASGR1 extracellular domain (ECD); assay: Effect of calcium on anti-ASGR1 binding and dissociation (OCTET Red 96, Penta-His biosensors); set-up: key to Ca2+ sensitivity during association / Ca2+ sensitivity during dissociation / Ca2+ Sensitivity: N = No; Y = Yes; conditions: for Ca2+ sensitivity during association: binding to human ASGR1 ECD with or without calcium; for Ca2+ sensitivity during association / Ca2+ sensitivity during dissociation: OCTET; for Ca2+ sensitivity during dissociation: dissociation from human ASGR1 ECD with or without calcium; for Ca2+ Sensitivity: overall summary column
Experimental: The ability of anti-human ASGR1 antibodies of this disclosure to bind to human ASGR1 in the presence or absence of calcium in binding buffer was examined. Briefly, ASGR1 antibodies were bound to immobilized human ASGR1 extracellular domain (ECD) at saturating levels and subsequently dissociated under three different conditions as follows: (a) binding and dissociation with buffer containing calcium (PBS+1% BSA+0.2% Tween20+0.9 mM CaCl2), pH 7.4); (b) binding with buffer containing calcium and dissociation with buffer lacking calcium; and (c) binding and dissociation with buffer lacking calcium. Analysis of ASGR1 antibody binding to human ASGR1 ECD was performed using the OCTET® Red 96 instrument and analyzed using the OCTET®Data Analysis Software 9.0 (ForteBio). His-tagged human ASGR1 ECD was immobilized to OCTET® Penta-His biosensors and ASGR1 antibodies were subjected to avidity binding under the conditions described above. Association with the ASGR1 ECD was measured by the rate of and increase in magnitude of signal response at a given antibody concentration. Dissociation from the ASGR1 ECD was measured the rate of loss in signal upon removal of the antibody and further incubation with or without Ca^2+. […] Also tested were humanized antibodies hzH8K-1 and hzL4L-7.
Further analysis of the antibodies of this disclosure was to determine whether the presence of calcium was needed for binding (i.e., during association) of the antibodies to human ASGR1 ECD. […]

[2] = target: T2, HepG2 cells (which express ASGR1); assay: Guava HepG2 cell binding screen of anti-ASGR1 mAbs; conditions: humanized L4L clones; Good / Poor
Experimental: Additionally, hybridomas producing monoclonal antibodies (mAbs) specific for human ASGR1 were prepared from Balb/C mice immunized with ASGR1-AviHis at a service provider using their propriety protocol. Antibody heavy and light chain sequences were obtained, amplified, and cloned. Clone supernatants containing the expressed mAbs were screened for binding to a human ASGR1-IgG1Fc fusion protein, and those with a positive signal as measured by enzyme linked immunosorbent assay (ELISA) were screened for cell binding on HepG2 cells (which express ASGR1). […] The isolated mAbs were further analyzed for the additional characteristics including, for example, titer, low aggregate content following protein A purification, high titer, lack of cross-blocking of ligand GalNac, calcium sensitivity, and cross-reactivity with rat ASGR1 protein.

rat ASGR1 = target: T3, rat ASGR1; assay: Binding to cell surface expressed rat ASGR1 (transiently transfected CHO-S cells, GUAVA)
Experimental: Anti-human ASGR1 antibodies of this disclosure were examined for cross-reactivity with Cynomolgus macaque and rat ASGR1. Briefly, sequence encoding Cynomolgus macaque or rat ASGR1 was transiently transfected into CHO-S cells. Transfected cells were before performing cell binding assay. A total of about 1.5×10^4 transfected cells/well were added to 96-well V-bottom assay plate, incubated at 37° C., 5% CO2 for 48-72 hours, and then washed with culture medium before adding 100 μl of each ASGR1 antibody at different concentrations starting from 100 nM and 3-fold dilutions to a total of eight wells. The cells with antibody were incubated for 40 minutes at 4° C., then washed three times with 200 μl of fresh culture medium. To each well was added 50 μl PE conjugated goat anti-human Fc (SouthernBiotech) at 1:200 dilution in culture medium and then incubated at 4° C. for 20 minutes. After washing the plate once, the treated cells were resuspended in 200 μl culture medium and then the stained cells were analyzed on GUAVA® using Incyte software.
Anti-human ASGR1 antibodies of this disclosure were examined for cross-reactivity with Cynomolgus macaque and rat ASGR1. […] After washing the plate once, the treated cells were resuspended in 200 μl culture medium and then the stained cells were analyzed on GUAVA® using Incyte software.

Molecule	Ca2+ sensitivity during association [1]	Ca2+ sensitivity during dissociation [1]	Ca2+ Sensitivity [1]	calcium sensitivity of binding to human ASGR1 ECD ([1]; sensitive: difference in binding signal after dissociation with vs without calcium >±10%)	Guava HepG2 Screen [2]	binding to rat ASGR1 (rat ASGR1)
B1	N	N	N	lacking sensitivity to calcium	Good	not rat cross-reactive
B2	N	N	N			not rat cross-reactive
